Measured values taken from PMC2990977.

Target: 80S ribosome from Thermomyces lanuginosus (Thermomyces lanuginosus)
Assay: co-sedimentation

eukaryotic elongation factor 2 (eEF2) from Thermomyces lanuginosus (natural protein)
occupancy relative to Sordarin-trapped eEF2: 60 to 70% | percent eEF2 bound (GDP only): 16%
